According to patent CN115785274A (DONGGUAN PENGZHI BIOTECHNOLOGY CO LTD, dated 2023):

Target: T1, PG I蛋白(fitzgerald，30R-AP038) (UniProt P0DJD8 16-388)
T1 construct: Bought antigen; Pepsinogen I is a group of isozymogens (human genes PGA3, PGA4, PGA5); also called 胃蛋白酶原I; HPG I
Assay: BLI, antibody captured on AMC sensor, PG I protein in a dilution series in PBST

T1 sequence (P0DJD8 16-388): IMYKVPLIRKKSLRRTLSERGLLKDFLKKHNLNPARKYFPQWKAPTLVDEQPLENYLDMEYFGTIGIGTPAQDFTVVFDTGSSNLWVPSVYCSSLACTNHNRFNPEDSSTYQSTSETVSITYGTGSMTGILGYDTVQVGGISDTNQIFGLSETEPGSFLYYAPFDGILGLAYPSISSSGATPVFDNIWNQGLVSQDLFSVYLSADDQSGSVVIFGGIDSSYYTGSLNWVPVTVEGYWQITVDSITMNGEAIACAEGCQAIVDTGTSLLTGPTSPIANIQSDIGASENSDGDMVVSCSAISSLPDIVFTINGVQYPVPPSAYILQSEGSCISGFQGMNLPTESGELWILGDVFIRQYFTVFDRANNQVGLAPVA

Question: With 对照抗体 (antibody) as the molecule, how does the Kd read?
Answer: 0.271 nM

Question: And the koff?
Answer: 0.000529 s⁻¹

Question: And the kon?
Answer: 1.95e+06 M⁻¹ s⁻¹

B1: Anti-HPG I 13A5单克隆抗体 (antibody, V domains shown)
VH: QVQLQQSGPELVRPGVSVKISCKGSGYTFTDHPMHWVKQSHAKSLEWIGVISTFSGHRNYNQKFKGKATMTVDKSSTTAYMELDRLTSEDSAIYYCARGDKSIYYGSYLSWGQGTLITVSA
VL: QIVLTQSPAIMSASPGEKVTMTCSASSSVSYMYWYQQKSGTSPKRWIYDTSKLTSGVPARFSGSGSGTSYSLTISSMETEDAATYFCQQWSSSPLTFGAGTKLELK
Question: B1 was tested. Which Kd did it give?
Answer: 0.0275 nM

Question: And the koff?
Answer: 0.000536 s⁻¹

Question: And the kon?
Answer: 1.95e+07 M⁻¹ s⁻¹
